Patent publication US20200000897A1 (published 2020)

B1: SIFGLAPGK (peptide)
peptide: SIFGLAPGK
B2: SVLSRMLVR (peptide)
peptide: SVLSRMLVR
B3: GLSTILLYH (peptide)
peptide: GLSTILLYH
B4: SSFRPLLSK (peptide)
peptide: SSFRPLLSK
B5: VVTGNVPLK (peptide)
peptide: VVTGNVPLK
B6: KLYPQCLQK (peptide)
peptide: KLYPQCLQK
B7: LLYGNGPGYVLK (peptide)
peptide: LLYGNGPGYVLK
B8: FSNNHPSTPK (peptide)
peptide: FSNNHPSTPK
B9: VLLLLSLLH (peptide)
peptide: VLLLLSLLH
B10: VLYRPQLEK (peptide)
peptide: VLYRPQLEK
B11: RVLYRPQLEK (peptide)
peptide: RVLYRPQLEK
B12: AIGTPLIGK (peptide)
peptide: AIGTPLIGK
B13: KCYEVGMMK (peptide)
peptide: KCYEVGMMK
B14: LLDAEPPILY (peptide)
peptide: LLDAEPPILY
B15: RCFSGPYLNK (peptide)
peptide: RCFSGPYLNK
B16: KLLEDMVEK (peptide)
peptide: KLLEDMVEK
B17: GVTITKTLK (peptide)
peptide: GVTITKTLK
B18: IIFVPEMNK (peptide)
peptide: IIFVPEMNK
B19: ALNDRFAGY (peptide)
peptide: ALNDRFAGY
B20: SLYDSEPRKK (peptide)
peptide: SLYDSEPRKK
B21: VLYELGIIGNNK (peptide)
peptide: VLYELGIIGNNK
B22: GIFPKIMPK (peptide)
peptide: GIFPKIMPK
B23: KINQYIIKK (peptide)
peptide: KINQYIIKK
B24: KGWNGQIFK (peptide)
peptide: KGWNGQIFK
B25: RLGAARGQLR (peptide)
peptide: RLGAARGQLR
B26: AVAAVLLSR (peptide)
peptide: AVAAVLLSR
B27: GMYEYGSIEK (peptide)
peptide: GMYEYGSIEK
B28: HVLYPVPLESY (peptide)
peptide: HVLYPVPLESY
B29: ALCGTQLFY (peptide)
peptide: ALCGTQLFY
B30: ALFGNALVFY (peptide)
peptide: ALFGNALVFY
B31: RTIEELQNK (peptide)
peptide: RTIEELQNK
B32: RVCMTVDSLVNK (peptide)
peptide: RVCMTVDSLVNK
B33: ITAPLMPLGK (peptide)
peptide: ITAPLMPLGK
B34: TVYDSIWCNMK (peptide)
peptide: TVYDSIWCNMK
B35: RLSAESKDLLK (peptide)
peptide: RLSAESKDLLK
B36: VVFPFPVNKR (peptide)
peptide: VVFPFPVNKR
B37: RVKEIVINK (peptide)
peptide: RVKEIVINK
B38: VTAVASLLK (peptide)
peptide: VTAVASLLK
B39: VVREILHAQTLK (peptide)
peptide: VVREILHAQTLK
B40: KTGTFVLYKS (peptide)
peptide: KTGTFVLYKS
B41: HAFPPGPNY (peptide)
peptide: HAFPPGPNY
B42: HAFFPKTHR (peptide)
peptide: HAFFPKTHR
B43: QIRAELMKK (peptide)
peptide: QIRAELMKK
B44: HSAGIFSMY (peptide)
peptide: HSAGIFSMY
B45: TTYYPSPLNK (peptide)
peptide: TTYYPSPLNK
B46: SLFPYYNNLY (peptide)
peptide: SLFPYYNNLY
B47: IINESLLFY (peptide)
peptide: IINESLLFY
B48: KTQFPQLK (peptide)
peptide: KTQFPQLK
B49: KGPMAGILAY (peptide)
peptide: KGPMAGILAY
B50: RLVELAGQSLLK (peptide)
peptide: RLVELAGQSLLK
B51: KQALSLVRK (peptide)
peptide: KQALSLVRK
B52: VVDDSQLPK (peptide)
peptide: VVDDSQLPK
B53: EVILTTKTPK (peptide)
peptide: EVILTTKTPK
B54: VTADGALAMEK (peptide)
peptide: VTADGALAMEK

What follows are binders tested against T1, HLA-A*03:01 (human) (assay: UV-ligand exchange, anti-b2m ELISA; peptide exchange yield grade (>10% +, >20% ++, >50% +++, >75% ++++)).
T1 construct: MHC class I monomer first loaded with a UV-sensitive peptide that is cleaved by UV irradiation and exchanged for the test peptide; captured on streptavidin plates; also called peptide-receptive MHC molecules
Excerpt: Candidate peptides for T cell based therapies according to the present invention were further tested for their MHC binding capacity (affinity). The individual peptide-MHC complexes were produced by UV-ligand exchange, where a UV-sensitive peptide is cleaved upon UV-irradiation and exchanged with the peptide of interest as analyzed. Only peptide candidates that can effectively bind and stabilize the peptide-receptive MHC molecules prevent dissociation of the MHC complexes. To determine the yield of the exchange reaction, an ELISA was performed based on the detection of the light chain (β2m) of stabilized MHC complexes. The assay was performed as generally described in Rodenko et al. (Rodenko et al., 2006)
96 well MAXISorp plates (NUNC) were coated over night with 2 ug/ml streptavidin in PBS at room temperature, washed 4× and blocked forl h at 37° C. in 2% BSA containing blocking buffer. Refolded HLA-A*02:01/MLA-001 monomers served as standards, covering the range of 15-500 ng/ml. Peptide-MHC monomers of the UV-exchange reaction were diluted 100-fold in blocking buffer. Samples were incubated for 1 h at 37° C., washed four times, incubated with 2 ug/ml HRP conjugated anti-β2m for 1 h at 37° C., washed again and detected with TMB solution that is stopped with […]. Absorption was measured at 450 nm.

peptide exchange yield | Binder
> 75% | B1
> 75% | B2
> 75% | B3
> 75% | B4
50 to 75% | B5
> 75% | B6
> 75% | B7
50 to 75% | B8
20 to 50% | B9
> 75% | B10
50 to 75% | B11
50 to 75% | B12
> 75% | B13
10 to 20% | B14
> 75% | B15
20 to 50% | B16
50 to 75% | B17
> 75% | B18
50 to 75% | B19
> 75% | B20
50 to 75% | B21
> 75% | B22
50 to 75% | B23
50 to 75% | B24
20 to 50% | B25
50 to 75% | B26
> 75% | B27

peptide exchange yield | Binder
50 to 75% | B28
> 75% | B29
> 75% | B30
50 to 75% | B31
> 75% | B32
> 75% | B33
> 75% | B34
50 to 75% | B35
50 to 75% | B36
50 to 75% | B37
> 75% | B38
50 to 75% | B39
50 to 75% | B40
10 to 20% | B41
> 75% | B42
> 75% | B43
20 to 50% | B44
50 to 75% | B45
10 to 20% | B46
50 to 75% | B47
20 to 50% | B48
20 to 50% | B49
> 75% | B50
50 to 75% | B51
20 to 50% | B52
20 to 50% | B53
50 to 75% | B54
